# According to US20240117334A1 (VERTEX PHARMACEUTICALS, published 2024):
# Residue numbers refer to the chain shown, from its start. Numbers in names are those of the source. Where “and” joins values, the source holds several entries; their conditions need not be identical. Equal entries are not always repeated.
# T1: Plasma antichymotrypsin (ACT) (UniProt P01011 24-423)
# T1 construct: also called plasma ACT
# T1 sequence (looked up): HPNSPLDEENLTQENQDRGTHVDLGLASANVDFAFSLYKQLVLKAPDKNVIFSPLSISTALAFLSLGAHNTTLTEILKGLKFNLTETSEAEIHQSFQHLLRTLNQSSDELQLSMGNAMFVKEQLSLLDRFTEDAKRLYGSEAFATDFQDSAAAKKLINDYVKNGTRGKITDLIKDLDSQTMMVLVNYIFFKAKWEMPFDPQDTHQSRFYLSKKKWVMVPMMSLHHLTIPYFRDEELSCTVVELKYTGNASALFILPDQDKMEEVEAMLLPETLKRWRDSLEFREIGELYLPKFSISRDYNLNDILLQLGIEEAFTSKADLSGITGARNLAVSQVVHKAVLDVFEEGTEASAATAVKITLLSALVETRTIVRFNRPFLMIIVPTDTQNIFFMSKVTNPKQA
# B1: MTSP-1 A77aT/F94Y/C122S/D125G (enzyme)
# chain: VVGGTDADEGEWPWQVSLHALGQGHICGASLISPNWLVSAAHCYIDDRGFRYSDPTQWTAFLGLHDQSQRSTPGVQERRLKRIISHPFYNDFTFDYDIALLELEKPAEYSSMVRPISLPGASHVFPAGKAIWVTGWGHTQYGGTGALILQKGEIRVINQTTCENLLPQQITPRMMCVGFLSGGVDSCQGDSGGPLSSVEADGRIFQAGVVSWGDGCAQRNKPGVYTRLPLFRDWIKENTGV
# B2: MTSP-1 I41N/F97D/F99L/C122S/C[17]S/C[19]S (enzyme)
# chain: B1 chain with I26N, T72A, Y89F, F92D, F94L, G120D
# B3: MTSP-1 I41G/F97D/F99L/C122S/Y146D/C[17]S/C[19]S (enzyme)
# chain: B1 chain with I26G, T72A, Y89F, F92D, F94L, G120D, Y141D
# B4: MTSP-1 I41A/F97D/F99L/C122S (enzyme)
# chain: B1 chain with I26A, T72A, Y89F, F92D, F94L, G120D
# B5: MTSP-1 I41G/F97E/F99L/C122S/C[17]S/C[19]S (enzyme)
# chain: B1 chain with I26G, T72A, Y89F, F92E, F94L, G120D
# B6: MTSP-1 F97L/T98G/F99V/C122S/C[17]S/C[19]S/-null_D96insD (enzyme)
# chain: VVGGTDADEGEWPWQVSLHALGQGHICGASLISPNWLVSAAHCYIDDRGFRYSDPTQWTAFLGLHDQSQRSAPGVQERRLKRIISHPFFNDDLGVDYDIALLELEKPAEYSSMVRPISLPDASHVFPAGKAIWVTGWGHTQYGGTGALILQKGEIRVINQTTCENLLPQQITPRMMCVGFLSGGVDSCQGDSGGPLSSVEADGRIFQAGVVSWGDGCAQRNKPGVYTRLPLFRDWIKENTGV
# B7: chymase C22S/K40L/F41K/L99N/F173Y/S218L/A226R (enzyme)
# chain: IIGGTESKPHSRPYMAYLEIVTSNGPSLKCGGFLIRRNFVLTAAHCAGRSITVTLGAHNITEEEDTWQKLEVIKQFRHPKYNTSTNHHDIMLLKLKEKASLTLAVGTLPFPSQFNFVPPGRMCRVAGWGRTGVLKPGSDTLQEVKLRLMDPQACSHYRDFDHNLQLCVGNPRKTKSAFKGDSGGPLLCAGVAQGIVSYGRLDAKPPRVFTRISHYRPWINQILQAN
# B8: chymase C22S/F41R/L99Y/G151T/F173K/R217S/A226R (enzyme)
# chain: B7 chain with L28K, K29R, N86Y, G137T, Y157K, R200S, L201S
# B9: chymase C22S/L99H/F173Y/K192R/S218L/A226R (enzyme)
# chain: B7 chain with L28K, K29F, N86H, K179R
# B10: chymase C22S/F41R/L99H/G151T/F173Y/Y215K/R217M/A226R (enzyme)
# chain: B7 chain with L28K, K29R, N86H, G137T, Y198K, R200M, L201S
# B11: chymase C22S/F41I/L99W/G151L/F173K/R217S/A226R (enzyme)
# chain: B7 chain with L28K, K29I, N86W, G137L, Y157K, R200S, L201S
# B12: chymase C22S/F41V/L99H/G151R/F173L/Y215R/R217T/A226R (enzyme)
# chain: B7 chain with L28K, K29V, N86H, G137R, Y157L, Y198R, R200T, L201S
# B13: chymase C22S/L99H/F173L/K192R/Y215H/R217T/S218V/A226R (enzyme)
# chain: B7 chain with L28K, K29F, N86H, Y157L, K179R, Y198H, R200T, L201V
# B14: chymase C22S/F41V/L99W/G151L/F173K/R217S/A226R (enzyme)
# chain: B7 chain with L28K, K29V, N86W, G137L, Y157K, R200S, L201S
# B15: chymase C22S/F41V/L99F/G151R/F173K/R217S/A226R (enzyme)
# chain: B7 chain with L28K, K29V, N86F, G137R, Y157K, R200S, L201S
# B16: chymase F41V/L99H/G151V/F173Y/Y215K/R217G/A226R (enzyme)
# chain: B7 chain with S7C, L28K, K29V, N86H, G137V, Y198K, R200G, L201S
# B17: chymase C22S/F41R/L99G/G151T/F173Y/Y215R/R217M/A226R (enzyme)
# chain: B7 chain with L28K, K29R, N86G, G137T, Y198R, R200M, L201S
# B18: chymase C22S/L99Y/F173Y/K192R/S218L/A226R (enzyme)
# chain: B7 chain with L28K, K29F, N86Y, K179R
# B19: chymase C22S/K192R/A226R (enzyme)
# chain: B7 chain with L28K, K29F, N86L, Y157F, K179R, L201S
# B20: chymase C22S/L99H/F173I/K192R/Y215K/R217T/S218I/A226R (enzyme)
# chain: B7 chain with L28K, K29F, N86H, Y157I, K179R, Y198K, R200T, L201I
# B21: chymase C22S/A226R (enzyme)
# chain: B7 chain with L28K, K29F, N86L, Y157F, L201S
# B22: chymase C22S/K40L/F41K/L99H/G151S/F173Y/S218L/A226R (enzyme)
# chain: B7 chain with N86H, G137S
# B23: chymase C22S/F173Y/D175N/A226R (enzyme)
# chain: B7 chain with L28K, K29F, N86L, D159N, L201S
# notes: also called MS No. 18
# B24: chymase C22S/S189T/A190S/A226R (enzyme)
# chain: B7 chain with L28K, K29F, N86L, Y157F, S176T, A177S, L201S
# B25: chymase C22S/K40L/F41H/L99N/F173Y/S218L/A226R (enzyme)
# chain: B7 chain with K29H
# B26: chymase C22S/A190S/A226R (enzyme)
# chain: B7 chain with L28K, K29F, N86L, Y157F, A177S, L201S
# B27: chymase C22S/K40L/F41K/L99H/F173Y/S218L/A226R (enzyme)
# chain: B7 chain with N86H
# B28: chymase C22S (enzyme)
# chain: B7 chain with L28K, K29F, N86L, Y157F, L201S, R207A
# notes: For all chymase variants: mutation names are in chymotrypsin numbering
# B29: chymase C22S/K40L/F41K/L99N/F173Y/D175N/S218L/A226R (enzyme)
# chain: B7 chain with D159N
# notes: also called MS No. 8
# B30: chymase C22S/K40L/F41H/L99N/F173Y/D175N/S218L/A226R (enzyme)
# chain: B7 chain with K29H, D159N
# notes: also called MS No. 16
# B31: chymase C22S/K40L/F41R/L99N/F173Y/S218L/A226R (enzyme)
# chain: B7 chain with K29R
# B32: chymase C22S/K40M/F41R/L99N/G151S/F173Y/S218L/A226R (enzyme)
# chain: B7 chain with L28M, K29R, G137S
# B33: chymase C22S/K40L/F41L/L99N/G151H/F173Y/S218V/A226R (enzyme)
# chain: B7 chain with K29L, G137H, L201V
# B34: chymase C22S/K40L/F41R/L99N/F173Y/D175N/S218L/A226R (enzyme)
# chain: B7 chain with K29R, D159N
# notes: also called MS No. 15
# B35: chymase C22S/P38Q/V138I/V183I/L199V/A226R/F228V (enzyme)
# chain: B7 chain with P26Q, L28K, K29F, N86L, V125I, Y157F, V168I, L186V, L201S, F209V
# Target: T2, Human Factor B (human, UniProt P00751 26-764)
# T2 sequence (P00751 26-764 limits assumed): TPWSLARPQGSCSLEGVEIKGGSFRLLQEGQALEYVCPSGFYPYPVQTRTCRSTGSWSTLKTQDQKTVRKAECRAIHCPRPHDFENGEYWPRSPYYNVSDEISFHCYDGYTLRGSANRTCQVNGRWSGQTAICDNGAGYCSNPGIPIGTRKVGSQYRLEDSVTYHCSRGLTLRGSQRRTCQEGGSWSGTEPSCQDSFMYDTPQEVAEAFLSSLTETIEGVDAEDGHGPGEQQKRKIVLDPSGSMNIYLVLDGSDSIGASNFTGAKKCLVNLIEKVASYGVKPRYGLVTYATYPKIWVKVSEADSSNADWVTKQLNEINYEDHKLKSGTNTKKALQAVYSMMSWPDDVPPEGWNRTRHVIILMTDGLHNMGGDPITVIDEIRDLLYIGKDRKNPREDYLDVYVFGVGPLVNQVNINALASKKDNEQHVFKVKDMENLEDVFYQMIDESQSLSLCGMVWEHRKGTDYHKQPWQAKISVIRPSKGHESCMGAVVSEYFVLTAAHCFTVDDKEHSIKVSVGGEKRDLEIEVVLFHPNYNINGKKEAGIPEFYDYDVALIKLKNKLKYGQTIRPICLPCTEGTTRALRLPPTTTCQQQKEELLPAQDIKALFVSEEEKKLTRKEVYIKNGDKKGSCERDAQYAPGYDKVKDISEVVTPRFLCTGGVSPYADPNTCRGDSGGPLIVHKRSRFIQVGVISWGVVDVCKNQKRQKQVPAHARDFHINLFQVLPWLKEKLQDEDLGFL
# Assay: cell-based or functional assay
row,Hu fB Add-Back EC50,Binder
1,0.0659 µM and 0.125 µM,B1
2,0.223 µM,B2
3,0.283 µM and 0.395 µM,B3
4,0.283 µM,B4
5,0.362 µM and 0.357 µM and 0.292 µM,B5
6,4.59 µM and 3.49 µM,B6

# Target: T2, Human Factor B
# Assay: cell-based or functional assay
# Remark: another data set of the same source
"fB Cleavage, 80% plasma EC50",fB Cleavage EC50,"fB Cleavage, 64% A2M-depl plasma EC50 [µM]","fB Cleavage, 64% plasma EC50 [µM]",Binder
14 µM,,,,B7
,3.45 µM,,,B8
,1.15 µM,,,B9
,1.69 µM,,,B10
,1.74 µM,,,B11
,8.06 µM,,,B12
,7.77 µM and 2.74 µM,,,B13
,1.94 µM,,,B14
,3.65 µM,,,B15
,7.77 µM,,,B16
,4.33 µM,,,B17
,1.02 µM,,,B18
,6.37 µM,,,B19
,5.62 µM,,,B20
,5.21 µM,,,B21
17.2 µM,,,,B22
11.2 µM,,1.65,,B23
,0.605 µM,,,B24
13.9 µM,,,,B25
,0.407 µM,,,B26
14.8 µM,,,,B27
10.2 µM,0.265 µM,1.52,7.88,B28
5.7 µM,,,,B29
5.07 µM,0.139 µM,,,B30
15.6 µM,0.379 µM,,,B31
11.2 µM,,,,B32
17.1 µM,,,,B33
4.09 µM and 3.76 µM,0.119 µM,,,B34

# Target: T1, Plasma antichymotrypsin (ACT)
# Assay: serpin inhibition of the protease
row,kapp [M⁻¹ s⁻¹],Binder
1,197,B7
2,1040,B21
3,139,B22
4,269,B35
5,428,B23
6,935,B24
7,193,B25
8,1600,B26
9,147,B27
10,31200,B28
11,28,B29
12,40,B30
13,190,B31
14,317,B32
15,252,B33
16,37,B34
